{
  "source": "paper PMC3526787",
  "about": "“Structures of Lysenin Reveal a Shared Evolutionary Origin for Pore-Forming Proteins And Its Mode of Sphingomyelin Recognition” (Structure(London, England:1993), 2012)",
  "proteins": {"B1": {"name": "lysenin (natural protein)", "chain": "MSAKAAEGYEQIEVDVVAVWKEGYVYENRGSTSVDQKITITKGMKNVNSETRTVTATHSIGSTISTGDAFEIGSVEVSYSHSHEESQVSMTETEVYESKVIEHTITIPPTSKFTRWQLNADVGGADIEYMYLIDEVTPIGGTQSIPQVITSRAKIIVGRQIILGKTEIRIKHAERKEYMTVVSRKSWPAATLGHSKLFKFVLYEDWGGFRIKTLNTMYSGYEYAYSSDQGGIYFDQGTDNPKQRWAINKSLPLRHGDVVTFMNKYFTRSGLCYDDGPATNVYCLDKREDKWILEVVG", "notes": "A thrombin cleavage site and six histidines follow the C terminus (printed as …); also called WT lysenin; native lysenin; source: E. coli BL21, purified (Ni-NTA IMAC, SEC)"}},
  "molecular_target": "the molecule itself",
  "experiment": "2D electron crystallography; lysenin in a lipid bilayer (liposomes containing SM); 2D crystals, trigonal array with space group p3, projection map at 14 Å",
  "data": [
    {"protein": "B1", "values": [
      {"measurement": "binding result", "result": "binds"}
    ]}
  ]
}
